Test results: patent publication US12371675B2, “Process and microorganism for synthesis of adipic acid from carboxylic acids” (THE GOVERNING COUNCIL OF THE UNIVERSITY OF TORONTO, priority 2015, dated 2025)

B1: EREDMT: 2-enoate reductase (ERED) from Moorella thermoacetica ATCC 39073 (protein)
chain: MVVAYTRLFEPIKIGKVEIKNKIAMAPMGVLGLATQDGCFSKRVVDYYVERAKGGTGLIITSVTKVDNEIERFKAGAVPVATANPLHFIATAGELTERVHAYGTKIFLQLGMGFGRVAAPILLESHPVAPSALPNFWDPSITCRELTTAEVETLVQRASEAAEIAVEAGFDGVEIHAMHEGYLLDQFTIALFNRRGDKYGGALEDRLTFPIEIVRAIKDRVGKDFPVVLRFSIKNYIKDWRQGGLPGENFQEKGRDVEEALAAAKILEGAGYDGFDADAGSYDAWYWAHPPVYQKHGCYLPLTQRLKEVVKVPVIVAGRLEIPELAEEALVKGQADMIAIGRGLLTDPYWVNKVMTGRSKNIRPCIGCHDGCLGRGFLGRPLSCTVNPACGREEEYAIDRAPEAKQVMVIGGGVAGMEAARVAALRGHRVSLYEKSDRLGGHVVEAAVPDFKADDGRLLEWYKTELGELQVEIHLNQEVTPEFVEEKNPDVVVVATGSTPAIPDIPGVNKDKVTTVSDLLLGKKQAGDRVVIIGGGLAGCETALWLAQQGKDVTIIEILDDLMRAGIPVPYMNRMMLLDLLKMNGVKWLTETSVLEVTDDGVTLIGKTYQRSPLPADTVILAVGFAADQRLYNALRDKIPNLYLIGDSREPRNILAAIWEGYEVGRGI
B2: EREDCL: 2-enoate reductase (ERED) from Clostridium ljungdahlii DSM 13528 (protein)
chain: MKNKSLFQPIKIGKMEVKNKISMAPMGAFGLVDNEGCYNQRAIDYYVERAKGGTGLIITSITKVENELDKVVPGIIPVISTNPGRFLMTSSEMTERVHAYGAKIFLQLTMGFGRSGAPGTLLTSQPVSASDIPNYWDPTVTCRALTTSEVEWIVSKFIEGADIAQKADFDGVEIHAVHEGYLLDQFTLSIFNRRTDKYGGDLRGRLQLPIEIVQGIKARLGDDFPVGLRYSVKSCIKDWRQGGLPDEDYLEKGRDLKEGLDAAKILEAAGYDELNTDLGTYDAWYWSHPPIYQKNGLYLPYTKELKKVVKIPVIVAGKLGIPEDAEKALDDKAADMIGLGRPLLADPYWPKKVLSDNSERIRPCIGCHTGCLGRGFEGKPLSCTVNPAVGRERYYEIKPTLTPKKVMVVGGGVAGMEAARIIKMRGHDVTIYEGTDKLGGVIIPGSVPDFKVDDRRLIDWYKSEIKELEVKVNFNTKVTEELVEEEKPDVVIIATGAKEIKINVPGIEKDKVITALELLNDNKKVGNDVLMVGGGLVGCEAALYLAKQGKNVTIVEAKDTLLNSSKPIPHMNKIMLIDLLNMYNVKAITNNSLLEVTDKGAVLINNKFKKQEVSADTVTIAVGFKSDRELYNKLNGNIADLYLIGDAYQSANIMNAIWSANEIGLNC

How the values were obtained:
[1] = Whole-cell anaerobic biotransformation by E. coli expressing EREDs; format: cell-based; conditions: 20 mM 2-hexenedioic acid
[2] = Whole-cell biotransformation of muconic acid by E. coli expressing EREDs; format: cell-based; conditions: 0.7 mM, 24-hr incubation
Method: After a 24-hr incubation, no muconic acid or 2-hexenedioic acid were detected in the culture, and a 99% yield of adipic acid was obtained (FIGS. 8a, 8b, and 8c). […] The 3-hexenedioic acid-like compound appears to be an inefficient substrate for these EREDS. This is similar to the mutated 2,4-dienoyl-CoA reductases from E. coli, which catalyze hydrogenation of 2,4-dienoyl CoA into 3-enoyl CoA (Tu, X., Hubbard, P. A., Kim, J. J. P. & Schulz, H. Two distinct proton donors at the active site of Escherichia coli 2,4-dienoyl-CoA reductase are responsible for the formation of different products. Biochemistry 47, 1167-1175 (2008).).

Molecule | time to complete conversion of 2-hexenedioic acid to adipic acid [1] [h] | yield of adipic acid from cis,cis-muconic acid [2] [%] | yield of adipic acid from trans,trans-muconic acid [2] [%]
B1 | 6 | 99 | 99
B2 | 48 |  | 99
